Holding throughout (assay): enzyme inhibition assay (nitrocefin hydrolysis, Ki by fit to the Morrison equation); increasing concentrations of BLIP incubated with β-lactamase (0.05-0.6 nM) for 20 min, then nitrocefin added; initial velocity at 482 nm; 50 mM sodium phosphate pH 7.0, 100 μg/ml BSA
The target of assay [1] is CTX-M-15 β-lactamase, wild type (Klebsiella pneumoniae).
The target of assay [2] is CTX-M-15 N106S β-lactamase (Klebsiella pneumoniae).
Assay [3] deals with CTX-M-14 N106S β-lactamase.
In assay [4] the target is CTX-M-15 G240D β-lactamase (Klebsiella pneumoniae).
In assay [5] the target is T1, CTX-M-14 β-lactamase, wild type (UniProt Q9L5C7 29-291).
T1 construct: also called CTX-M-14 wild type; source: E. coli BL21(DE3), pET28a, purified (Co2+ Talon, TEV cleavage, Ni2+ Sepharose); not shown: His6, N-terminal, cleaved
The settings on record: both partners purified.

Take “β-lactamase inhibitory protein (BLIP), wild type (from UniProt P35804) (natural protein)”: the Ki in assay [1] came to 2.9 nM; in assay [2] it was 0.35 nM; in assay [3] it was 2.1 nM; in assay [4], 5 nM.

B1: β-lactamase inhibitory protein (BLIP), wild type (natural protein)
chain: AGVMTGAKFTQIQFGMTRQQVLDIAGAENCETGGSFGDSIHCRGHAAGDYYAYATFGFTSAAADAKVDSKSQEKLLAPSAPTLTLAKFNQVTVGMTRAQVLATVGQGSCTTWSEYYPAYPSTAGVTLSLSCFDVDGYSSTGFYRGSAHLWFTDGVLQGKRQWDLV
notes: No removal of the His tag is described; source: E. coli RB791, plasmid pGR32, purified (Co2+ Talon column, gel filtration)
Turning to B1, the inhibition constant Ki in assay [5] amounted to 330 nM.

The record behind these values is PMC9640584, “An active site loop toggles between conformations to control antibiotic hydrolysis and inhibition potency for CTX-M β-lactamase drug-resistance enzymes” (Nature Communications, 2022).
